PMC2920317, “CHL1 Is a Selective Organizer of the Presynaptic Machinery Chaperoning the SNARE Complex” (PLoS ONE, 2010)
Blank lines part the entries; values can stand above or below the binder they belong to.

Target: T1, Close homologue of L1 (CHL1) (mouse (endogenous in brain), UniProt P70232 26-1209)
T1 construct: CHL1, cell adhesion molecule of the immunoglobulin superfamily, endogenous in adult mouse brain; also called CALL; source: endogenous, mouse brain lysate; synaptosomes; synaptic vesicles and synaptic plasma membranes
T1 sequence (looked up): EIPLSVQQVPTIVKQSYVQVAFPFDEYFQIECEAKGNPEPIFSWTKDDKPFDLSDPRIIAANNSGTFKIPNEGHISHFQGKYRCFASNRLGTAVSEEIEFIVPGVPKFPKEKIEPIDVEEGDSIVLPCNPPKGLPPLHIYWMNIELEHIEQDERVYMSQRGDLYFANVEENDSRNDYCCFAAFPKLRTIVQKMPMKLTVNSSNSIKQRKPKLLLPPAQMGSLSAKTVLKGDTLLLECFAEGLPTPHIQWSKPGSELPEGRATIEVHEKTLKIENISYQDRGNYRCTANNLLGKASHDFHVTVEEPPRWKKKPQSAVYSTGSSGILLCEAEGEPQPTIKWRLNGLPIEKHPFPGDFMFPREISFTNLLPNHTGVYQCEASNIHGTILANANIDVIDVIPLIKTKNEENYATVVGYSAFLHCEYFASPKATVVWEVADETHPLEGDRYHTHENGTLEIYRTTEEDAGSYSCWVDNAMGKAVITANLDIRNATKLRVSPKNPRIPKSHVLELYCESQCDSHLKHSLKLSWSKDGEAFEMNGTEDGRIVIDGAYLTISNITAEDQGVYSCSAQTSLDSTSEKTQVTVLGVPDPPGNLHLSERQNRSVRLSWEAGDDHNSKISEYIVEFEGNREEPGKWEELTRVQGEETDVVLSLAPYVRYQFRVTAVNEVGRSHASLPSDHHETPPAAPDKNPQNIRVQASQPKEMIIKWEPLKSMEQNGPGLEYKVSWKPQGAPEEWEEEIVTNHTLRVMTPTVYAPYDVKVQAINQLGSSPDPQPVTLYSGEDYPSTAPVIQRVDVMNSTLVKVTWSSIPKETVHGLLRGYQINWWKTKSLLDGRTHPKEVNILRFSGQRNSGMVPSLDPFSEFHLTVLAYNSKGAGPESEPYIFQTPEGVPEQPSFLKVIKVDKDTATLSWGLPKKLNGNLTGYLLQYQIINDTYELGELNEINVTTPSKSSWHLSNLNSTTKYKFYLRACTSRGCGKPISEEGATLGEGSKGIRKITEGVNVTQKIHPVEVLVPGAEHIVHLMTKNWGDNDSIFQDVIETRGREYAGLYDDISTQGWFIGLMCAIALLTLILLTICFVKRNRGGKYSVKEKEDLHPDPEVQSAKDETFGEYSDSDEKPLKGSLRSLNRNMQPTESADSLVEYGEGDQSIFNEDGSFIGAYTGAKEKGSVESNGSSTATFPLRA
Experiment: co-IP; CHL1 immunoprecipitated from adult mouse brain lysates (50 mM Tris-HCl pH 7.5, 150 mM NaCl, 1% Nonidet P-40, 1 mM EDTA); protein A/G-agarose; Western blot; mock IP with non-specific Ig as control
Settings: partners not purified

- percent of the total pool co-immunoprecipitated: 15 ± 3.1%
B1: syntaxin1B (natural protein, mouse (endogenous in brain), UniProt P61264 1-288, looked up)
chain: MKDRTQELRSAKDSDDEEEVVHVDRDHFMDEFFEQVEEIRGCIEKLSEDVEQVKKQHSAILAAPNPDEKTKQELEDLTADIKKTANKVRSKLKAIEQSIEQEEGLNRSSADLRIRKTQHSTLSRKFVEVMTEYNATQSKYRDRCKDRIQRQLEITGRTTTNEELEDMLESGKLAIFTDDIKMDSQMTKQALNEIETRHNEIIKLETSIRELHDMFVDMAMLVESQGEMIDRIEYNVEHSVDYVERAVSDTKKAVKYQSKARRKKIMIIICCVVLGVVLASSIGGTLGL
notes: syntaxin1B, SNARE complex protein, endogenous in adult mouse brain; also called synatxin1B; source: endogenous, mouse brain lysate and synaptosomes; immunoprecipitated from synaptosomes and held on beads

- percent of the total pool co-immunoprecipitated: 46 ± 8.5%
B2: small glutamine-rich tetratricopeptide repeat-containing protein, ubiquitous isoform (αSGT) (natural protein, mouse (endogenous in brain), UniProt Q8BJU0 1-315, looked up)
chain: MDNRKRLAYAIIQFLHGQLRHGGLSCDAQESLEVAIQCLETAFGVTLEDSDLALPQTLPEIFEAATSSKQEMPQDPRAPDRTPPSEEDSAEAERLKTEGNEQMKLENFEAAVHLYGKAIELNPANAVYFCNRAAAYSKLGNYVGAVQDCERAIGIDPGYSKAYGRMGLALSSLNKHAEAVAYYKKALELDPDNDTYKSNLKIAELKLREAPSPTGGVGSLDIAGLLNNPHFITMASSLMNSPQLQQLMSGMISGGHNPLGTPGSSPQQSDLASLIQAGQQFAQQMQQQNPEFVEQIRSQVVRSRTPSASHEEQQE
notes: αSGT, endogenous in adult mouse brain; also called alphaSGT; source: endogenous, mouse brain lysate; synaptic vesicles and synaptic plasma membranes
